Measured values published in patent publication US20240343803A1 (SHANDONG SIMCERE BIOPHARMACEUTICAL, published 2024).
Where two headings read alike, the source gives them in different places.

T1: Fusion protein of extracellular domain of human TIGIT and mouse IgG2a Fc fragment (human TIGIT ECD-mFc) (human)
T1 construct: The entry includes the signal peptide (limits not recoverable) and the mouse IgG2a Fc
T1 chain: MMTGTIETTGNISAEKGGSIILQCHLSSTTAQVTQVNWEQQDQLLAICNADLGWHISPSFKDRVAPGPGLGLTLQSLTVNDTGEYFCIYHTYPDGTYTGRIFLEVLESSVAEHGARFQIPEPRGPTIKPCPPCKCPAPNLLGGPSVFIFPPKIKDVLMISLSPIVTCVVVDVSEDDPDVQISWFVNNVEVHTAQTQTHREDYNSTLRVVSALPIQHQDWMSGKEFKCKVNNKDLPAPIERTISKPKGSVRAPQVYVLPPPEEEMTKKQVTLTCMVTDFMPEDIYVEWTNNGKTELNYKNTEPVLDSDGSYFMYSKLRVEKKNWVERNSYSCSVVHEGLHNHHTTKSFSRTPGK

T2: Full-length human TIGIT on CHO-K1 cells (CHO-K1 human TIGIT) (human, UniProt Q495A1 22-244)
T2 construct: NCBI XP_024309156.1; the entry includes the signal peptide (limits not recoverable); The strain (high, medium, low) is named under assay; also called high expression strain 1D2; medium expression strain 2D10
T2 sequence: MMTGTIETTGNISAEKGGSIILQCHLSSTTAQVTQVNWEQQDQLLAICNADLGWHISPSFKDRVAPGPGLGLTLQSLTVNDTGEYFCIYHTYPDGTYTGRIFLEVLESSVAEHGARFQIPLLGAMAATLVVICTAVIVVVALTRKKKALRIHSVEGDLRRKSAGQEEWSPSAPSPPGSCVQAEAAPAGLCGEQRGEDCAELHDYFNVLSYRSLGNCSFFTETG

T3: Fusion protein of extracellular domain of human TIGIT and His-tag (human TIGIT ECD-his) (human)
T3 chain: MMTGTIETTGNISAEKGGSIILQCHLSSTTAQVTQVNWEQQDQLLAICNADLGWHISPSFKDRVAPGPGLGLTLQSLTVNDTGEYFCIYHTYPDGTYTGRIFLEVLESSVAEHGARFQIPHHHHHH

T4: TIGIT on human PBMCs stimulated by SEA (human, UniProt Q495A1 22-244)
T4 construct: whole, on cells
T4 sequence (looked up): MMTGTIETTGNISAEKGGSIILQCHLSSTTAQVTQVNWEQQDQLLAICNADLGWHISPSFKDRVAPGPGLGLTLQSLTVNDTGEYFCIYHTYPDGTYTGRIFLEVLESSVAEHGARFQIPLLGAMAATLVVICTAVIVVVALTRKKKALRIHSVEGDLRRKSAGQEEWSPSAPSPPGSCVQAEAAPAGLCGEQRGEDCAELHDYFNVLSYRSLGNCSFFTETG

B1: RG6058-hIgG1 (antibody, V domains shown)
VH: EVQLQQSGPGLVKPSQTLSLTCAISGDSVSSNSAAWNWIRQSPSRGLEWLGKTYYRFKWYSDYAVSVKGRITINPDTSKNQFSLQLNSVTPEDTAVFYCTRESTTYDLLAGPFDYWGQGTLVTVSS
VL: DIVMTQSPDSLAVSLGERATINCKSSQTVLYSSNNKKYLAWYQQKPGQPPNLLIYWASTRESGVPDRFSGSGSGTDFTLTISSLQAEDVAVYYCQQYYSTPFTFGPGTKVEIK
notes: Control anti-TIGIT antibody, human IgG1; also called Roche RG6058
B2: TIGIT-CHI-002 (antibody, V domains shown)
VH: EVQLQESGPGLAKPSQTLSLACSVTGYSITSDSWNWIRKFPGNKLEYMGYISYSGNTYYNPSLKSRISITRDTSKNQFYLQLNSVTTEDTATYYCARLDFSNYGGAVDYWGQGTSVTVSS
VL: DIVMTQSHTFMSTSVGDRVSITCKASQNVRTAVAWYQQKPGQSPKLMIYSASYRYTGVPDRFTGSGSGTDFTFTISSVQAEDLAVYYCQQYYTTPWTFGGGAKLEIQ
notes: Human-mouse chimeric antibody
B3: TIGIT-002-H2L3 (antibody, V domains shown)
VH: EVQLQESGPGLVKPSETLSLTCAVSGYSITSDSWNWIRQPPGKKLEWIGYISYSGNTYYNPSLKSRVTISRDTSKNQFSLKLSSVTAADTAVYYCARLDFSNYGGAVDYWGQGTTVTVSS
VL: DIVMTQSPDSLAVSLGERATINCKASQNVRTAVAWYQQKPGQSPKLMIYSASYRYTGVPDRFSGSGSGTDFTLTISSLQAEDVAVYYCQQYYTTPWTFGGGTKVEIK
notes: Humanized anti-TIGIT antibody
B4: TIGIT-002-H3L3 (antibody, V domains shown)
VH: EVQLQESGPGLVKPSETLSLTCAVSGYSITSDSWNWIRQPPGKKLEWMGYISYSGNTYYNPSLKSRITISRDTSKNQFSLKLSSVTAADTAVYYCARLDFSNYGGAVDYWGQGTTVTVSS
VL: DIVMTQSPDSLAVSLGERATINCKASQNVRTAVAWYQQKPGQSPKLMIYSASYRYTGVPDRFSGSGSGTDFTLTISSLQAEDVAVYYCQQYYTTPWTFGGGTKVEIK
notes: Humanized anti-TIGIT antibody
B5: TIGIT-002-H1L3 (antibody, V domains shown)
VH: EVQLQESGPGLVKPSETLSLTCAVSGYSITSDSWNWIRQPPGKGLEWIGYISYSGNTYYNPSLKSRVTISRDTSKNQFSLKLSSVTAADTAVYYCARLDFSNYGGAVDYWGQGTTVTVSS
VL: DIVMTQSPDSLAVSLGERATINCKASQNVRTAVAWYQQKPGQSPKLMIYSASYRYTGVPDRFSGSGSGTDFTLTISSLQAEDVAVYYCQQYYTTPWTFGGGTKVEIK
notes: Humanized anti-TIGIT antibody

How the values were obtained:
[1] = biological target: T1, Fusion protein of extracellular domain …; assay: ELISA, human TIGIT ECD-mFc
[2] = biological target: T2, Full-length human TIGIT on CHO-K1 cells …; assay: FACS; CHO-K1 human TIGIT medium expression strain
Summary of the method: (§1)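 Flow cytometry was used to measure antibody binding to CHO-K1 cells carrying full-length human or cynomolgus monkey TIGIT. Antibodies were serially diluted 3-fold across 12 points from 80 nM, then combined 1:1 with cells held at 2×10⁵/50 μL in 1% BSA-PBS and kept at 4° C for 60 min.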

[3] = biological target: T2, Full-length human TIGIT on CHO-K1 cells …; assay: FACS; CHO-K1 human TIGIT high expression strain
Summary of the method: as §1

[4] = biological target: T3, Fusion protein of extracellular domain …; assay: BIAcore
[5] = biological target: T1, Fusion protein of extracellular domain …; assay: FACS; blocking of TIGIT ECD-mFc binding to CHO-K1 CD112 cells
Protocol: The collected CHO-K1 CD112 cells were washed once with PBS (Hyclone, CAT #SH30256) and resuspended to 2×10⁵/40 μL with 1% BSA-PBS. The anti-TIGIT humanized antibodies were diluted to 600 nM with 1% BSA-PBS (diluted by 2.5-fold serial dilution for 12 concentration points). The TIGIT ECD-mFc was diluted with 1% BSA-PBS to 6 μg/mL. The 40 μL cells were then mixed with 40 μL diluted antibodies and 40 μL diluted TIGIT ECD-mFc, and then incubated at 4° C. for 60 minutes. […] The cell samples were washed twice with PBS, resuspended to 100 μL/well with 1% BSA-PBS and then analyzed by flow cytometry (BD, Canto II). […] (f) The binding activity of anti-TIGIT humanized antibodies to human PBMCs detected by FACS.

[6] = biological target: T5, Full-length cynomolgus monkey TIGIT on CHO-K1 cells (CHO-K1 cynomolgus monkey TIGIT) (cynomolgus monkey); assay: FACS; CHO-K1 cynomolgus monkey TIGIT
T5 construct: NCBI XP_015300911.1
Summary of the method: as §1

[7] = biological target: T6, Fusion protein of extracellular domain of cynomolgus monkey TIGIT and mouse IgG2a Fc fragment (cynomolgus … (cynomolgus monkey)); assay: ELISA, cynomolgus monkey TIGIT ECD-mFc
T6 construct: The entry includes the signal peptide (limits not recoverable) and the mouse IgG2a Fc

[8] = biological target: T2, Full-length human TIGIT on CHO-K1 cells …; assay: FACS; CHO-K1 human TIGIT low expression strain
Summary of the method: as §1

[9] = biological target: T1, Fusion protein of extracellular domain …; assay: FACS; blocking of TIGIT ECD-mFc binding to CHO-K1 CD155 cells
[10] = biological target: T4, TIGIT on human PBMCs stimulated by SEA; assay: FACS; binding to SEA-stimulated human PBMC
Protocol: The fresh human PBMCs (AllCells, PB004-C) were adjusted to a density of 5×10⁵/mL, added with SEA (Toxin Technology, Inc., CAT: AT101) to 100 ng/ml, and cultured at 37° C. with 5% CO₂ for 3 days. The cells were collected 3 days later, washed once with PBS (Hyclone, CAT #SH30256), added with Fc Block (BD, 564220) and then incubated at 4° C. for 10 minutes. After washing twice with PBS, the PBMCs were resuspended to 2×10⁵/50 μL with 1% BSA-PBS. The humanized antibodies were diluted to 80 nM with 1% BSA-PBS (diluted by 3-fold serial dilution for 12 concentration points). The 50 μL cells were then mixed with 50 μL diluted antibodies, and then incubated at 4° C. for 60 minutes. […] After washing twice with PBS, the cell samples were resuspended with 1% BSA-PBS, 100 μL/well and then analyzed by flow cytometry (BD, Canto II).

[11] = biological target: T2, Full-length human TIGIT on CHO-K1 cells …; assay: FACS; blocking of Bio-CD155-His binding to CHO-K1 human TIGIT cells
Summary of the method: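 For this flow cytometry blocking assay, antibody in a 12-point 3-fold dilution series starting at 210 nM was mixed at equal volume with CHO-K1 human TIGIT cells (2×10⁵/40 μL in 1% BSA-PBS) and with biotinylated CD155-His, diluted to 3 μg/mL, then held at 4° C for 60 min. Bound ligand was detected on a BD Canto II after staining with APC-streptavidin (1:1700) at 4° C for 40 min. The IC50 came from the inhibition curves.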

[12] = biological target: T5, Full-length cynomolgus monkey TIGIT on …; assay: cell binding, CHO-K1 cynomolgus monkey TIGIT
Summary of the method: (§2)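 Binding was measured by flow cytometry after a 60-minute, 4° C incubation of the antibodies with 2×10⁵ CHO-K1 cells displaying full-length human or cynomolgus monkey TIGIT. Antibody titration: 12 points, threefold serial dilution from 80 nM, in 1% BSA-PBS.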

[13] = biological target: T3, Fusion protein of extracellular domain …; assay: BIAcore; reference itself
[14] = biological target: T6, Fusion protein of extracellular domain …; assay: ELISA, cynomolgus monkey TIGIT ECD-mFc; remark: listed apart in the source
Summary of the method: (§3)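 Antibodies diluted to 13 nM in 1% BSA, then 3-fold serial dilution for 12 concentrations, incubated with milk-blocked plates at 37° C for 1.5-2 h. Bound antibody detected with HRP-labelled secondary antibody (1:5000, 37° C, 1 h) and TMB, stopped with 1M HCl; OD450 nm read.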
Target sequence in this assay (chain, as listed by the source limits assumed): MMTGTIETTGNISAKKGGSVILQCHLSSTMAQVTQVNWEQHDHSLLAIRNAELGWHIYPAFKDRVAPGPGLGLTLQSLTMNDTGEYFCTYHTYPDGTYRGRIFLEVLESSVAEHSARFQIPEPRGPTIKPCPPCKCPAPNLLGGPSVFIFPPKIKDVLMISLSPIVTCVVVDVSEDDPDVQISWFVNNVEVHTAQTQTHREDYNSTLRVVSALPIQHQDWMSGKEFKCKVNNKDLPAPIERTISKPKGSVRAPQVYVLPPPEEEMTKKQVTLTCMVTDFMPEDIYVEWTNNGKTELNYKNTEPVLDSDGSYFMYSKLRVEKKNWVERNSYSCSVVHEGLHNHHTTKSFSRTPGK

[15] = biological target: T1, Fusion protein of extracellular domain …; assay: ELISA, human TIGIT ECD-mFc
Summary of the method: as §3

[16] = biological target: T7, Fusion protein of extracellular domain of human TIGIT and human IgG1 Fc fragment (human TIGIT ECD-hFc) (human); assay: blocking of TIGIT ECD-hFc binding to CHO-K1 CD155 cells
T7 construct: The entry includes the signal peptide (limits not recoverable) and the human IgG1 Fc
Summary of the method: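 Inhibition was expressed as IC50 values derived from the inhibition curves of a cell-based ELISA. CHO-K1 CD155 cells were cultured overnight, fixed, and blocked with 5% skim milk-PBS. Antibodies were first premixed for 0.5 h with human TIGIT ECD-hFc at a working concentration of 30 ng/mL, and the mixture was then added to the cells for 1.5-2 h at 37° C. Bound TIGIT was detected with HRP secondary antibody (1:5000, 37° C, 1 h) and TMB, and read as OD450 nm.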

[17] = biological target: T3, Fusion protein of extracellular domain …; assay: BIAcore
[18] = biological target: T2, Full-length human TIGIT on CHO-K1 cells …; assay: cell binding, CHO-K1 human TIGIT high expression strain
Summary of the method: as §2

[19] = biological target: T3, Fusion protein of extracellular domain …; assay: BIAcore; KD ratio to TIGIT-CHI-002

T7 sequence (chain, as listed by the source limits assumed): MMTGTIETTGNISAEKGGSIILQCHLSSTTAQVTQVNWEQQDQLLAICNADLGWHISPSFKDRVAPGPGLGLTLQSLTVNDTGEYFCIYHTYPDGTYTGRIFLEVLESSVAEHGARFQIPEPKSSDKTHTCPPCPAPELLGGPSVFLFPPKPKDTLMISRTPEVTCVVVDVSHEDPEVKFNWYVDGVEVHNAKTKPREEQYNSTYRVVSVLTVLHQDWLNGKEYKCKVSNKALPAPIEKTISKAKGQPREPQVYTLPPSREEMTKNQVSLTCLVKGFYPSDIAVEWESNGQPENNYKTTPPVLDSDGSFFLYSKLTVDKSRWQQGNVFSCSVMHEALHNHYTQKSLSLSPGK
T5 sequence (chain, as listed by the source limits assumed): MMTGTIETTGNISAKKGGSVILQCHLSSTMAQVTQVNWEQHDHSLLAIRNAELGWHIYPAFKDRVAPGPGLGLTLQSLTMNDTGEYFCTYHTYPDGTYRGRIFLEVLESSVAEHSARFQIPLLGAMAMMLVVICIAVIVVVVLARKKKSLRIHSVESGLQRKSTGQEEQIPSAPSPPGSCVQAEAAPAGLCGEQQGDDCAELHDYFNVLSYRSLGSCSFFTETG

Binder	EC50 [12] [nM]	EC50 [14] [nM]	EC50 [15] [nM]	IC50 [16] [nM]	Kd [17] [nM]	koff [17] [s⁻¹]	kon [17] [M⁻¹ s⁻¹]	EC50 [18] [nM]	Fold change vs chimeric antibodies (KD) [19] [fold]	other results
B1	–	–	–	–	–	–	–	–	–	EC50 [1]: 0.0393 nM; EC50 [2]: 0.652 nM; EC50 [3]: 0.794 nM; Kd [4]: 0.156 nM; koff [4]: 0.000135 s⁻¹; kon [4]: 866000 M⁻¹ s⁻¹; IC50 [5]: 6 nM; EC50 [6]: 2.29 nM; EC50 [7]: 0.0486 nM; EC50 [8]: 0.481 nM; IC50 [9]: 0.584 nM; EC50 [10]: 0.285 nM; IC50 [11]: 0.334 nM
B2	0.0372	0.02	0.0161	0.564	0.0421	0.0003	7.13e+06	0.0218	–	Fold change vs chimeric antibodies (KD) [13]: 1 fold
B3	0.15	0.0337	0.0159	0.54	0.266	0.00107	4.03e+06	0.0278	6.3	–
B4	0.0919	0.022	0.0173	0.339	0.188	0.000852	4.52e+06	0.0361	4.47	–
B5	0.143	0.0511	0.0157	0.395	0.271	0.000973	3.59e+06	0.0253	6.44	–
